In the FLAb antibody collection (doi:10.7554/elife.23156):

B1: scFv; the commonest letter at each place (parent)
chain 1: EVKLDETGGGLVQPGRPMKLSCVASGFTFSDYWMNWVRQSPEKGLEWVAQIRNKPYNYETYYSDSVKGRFTISRDDSKSSVYLQMNNLRVEDMGIYYCTGSYYGMDYWGQGTSVTVS
chain 2: DVVMTQTPLSLPVSLGDQASISCRSSQSLVHSNGNTYLRWYLQKPGQSPKVLIYKVSNRFSGVPDRFSGSGSGTDFTLKISRVEAEDLGVYFCSQSTHVPWTFGGGTKLEIK

Tests used:
[1] = variants of: B1; test: Kd (Tite-Seq); settings: with fluorescein; format: scFv 4-4-20, heavy + light
[2] = variants of: B1; test: yeast surface expression (ratio to wild type); higher = more expressed; settings: format: scFv 4-4-20, heavy + light

Row | Variant | Kd [1] | yeast surface expression [2]
1 | chain 1 Y107M G109K | ≥ 10000 nM | 0.42
2 | chain 1 Y107M G109Q | ≥ 10000 nM | 0.353
3 | chain 1 Y107G W108A | ≥ 10000 nM | 0.528
4 | chain 1 Y107F W108E | ≥ 10000 nM | 0.411
5 | chain 1 Y107N G109P | ≥ 10000 nM | 0.28
6 | chain 1 Y107N G109K | ≥ 10000 nM | 0.306
7 | chain 1 Y107G | ≥ 10000 nM | 0.544
8 | chain 1 Y107P | ≥ 10000 nM | 0.414
9 | chain 1 Y107K | ≥ 10000 nM | 0.637
10 | chain 1 Y107F G109N | ≥ 10000 nM | 0.555
11 | chain 1 Y107F G109E | ≥ 10000 nM | 0.259
12 | chain 1 Y107W G109K | ≥ 10000 nM | 0.336
13 | chain 1 Y107V W108D | ≥ 10000 nM | 0.425
14 | chain 1 Y107V W108R | ≥ 10000 nM | 0.492
15 | chain 1 Y107P G109N | ≥ 10000 nM | 0.355
16 | chain 1 Y107S W108S | ≥ 10000 nM | 0.484
17 | chain 1 Y107S W108D | ≥ 10000 nM | 0.322
18 | chain 1 Y107G W108L G109E | ≥ 10000 nM | 0.331
19 | chain 1 Y107P W108A | ≥ 10000 nM | 0.455
20 | chain 1 Y107K W108A | ≥ 10000 nM | 0.575
21 | chain 1 Y107K W108Q | ≥ 10000 nM | 0.659
22 | chain 1 Y107Q W108Q | ≥ 10000 nM | 0.385
23 | chain 1 Y107R G109H | ≥ 10000 nM | 0.277
24 | chain 1 Y107N W108D G109C | ≥ 10000 nM | 0.313
25 | chain 1 Y107S G109C | ≥ 10000 nM | 0.174
26 | chain 1 Y107L G109V | ≥ 10000 nM | 0.298
27 | chain 1 Y107L G109R | ≥ 10000 nM | 0.343
28 | chain 1 Y107V G109E | ≥ 10000 nM | 0.339

Second part, led by results:

Row | Kd [1] | Variant | yeast surface expression [2]
29 | 2.15 nM | chain 1 Y107T W108A | 0.476
30 | 0.939 nM | chain 1 Y107L W108L | 0.676
31 | ≥ 10000 nM | chain 1 Y107L W108D | 0.326
32 | ≥ 10000 nM | chain 1 Y107T G109C | 0.278
33 | ≥ 10000 nM | chain 1 Y107R W108N | 0.495
34 | ≥ 10000 nM | chain 1 Y107I G109K | 0.234
35 | ≥ 10000 nM | chain 1 Y107I G109Q | 0.442
36 | ≥ 10000 nM | chain 1 Y107G G109V | 0.273
37 | ≥ 10000 nM | chain 1 Y107I W108R | 0.466
38 | ≥ 10000 nM | chain 1 Y107I W108S | 0.786
39 | 39.1 nM | chain 1 Y107N G109S | 0.836
40 | 676 nM | chain 1 Y107I | 0.995
41 | 0.784 nM | chain 1 Y107T | 0.965
42 | 19.4 nM | chain 1 Y107Q | 0.757
43 | 102 nM | chain 1 Y107R | 0.767
44 | 122 nM | chain 1 Y107V | 1.15
45 | 1910 nM | chain 1 Y107L | 1.01
46 | 2.39 nM | chain 1 Y107S | 0.77
47 | 0.846 nM | chain 1 Y107W | 1.11
48 | 37.2 nM | chain 1 Y107M | 0.921
49 | 10.4 nM | chain 1 Y107N | 0.775
50 | 2.51 nM | chain 1 Y107H | 1
51 | 0.688 nM | chain 1 Y107V W108Y | 0.724
52 | 0.989 nM | chain 1 Y107H W108T | 0.924
53 | ≤ 0.316 nM | chain 1 Y107W W108T | 0.647
54 | 1.35 nM | unchanged | 1
55 | 2470 nM | chain 1 Y107R G109S | 0.665
